Experimental findings from the nanobody polyreactivity screen of Harvey et al. (2022) are described below.

The data set in a line: yeast display, Sf9 membrane polyspecificity reagent, FACS + sequencing; frameworks hold sequencing errors. Summed up: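 Galactose induction of a Saccharomyces cerevisiae BJ5465 synthetic nanobody display library ran 36–48 hours. The cells were then stained for 1 hour at 4 °C with 10% biotinylated, detergent-solubilized Sf9 membrane reagent, pulled down on streptavidin microbeads and FACS-sorted into low and high (top ~1%) gates on expression and reagent-binding fluorescence. Labels for polyreactivity follow the gate of origin.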
Consider “QVQLVESGGGLVQAGGSLRLSCAASGRTFGSNAMGWYRQAPGKERELVAAITSSADSTYYADSVKGRFTISRDNAKNTVYLQMNSLKPEDTAVYYCATDQGGYYENDYWGQGTQVTVSS”, for which the “polyreactivity (PSR sort gate)” value is listed as “low polyreactivity”. “QVQLVESGGGLVQAGGSLRLSCAASGRTFGSNAMGWYRQAPGKERQLVAAITRRGGSTYYADSVKGRFTISRDNAKNTVYLQMNSLKPEDTAVYDCATDPVSTRGSDYWGQGTQVTVSS”: the “polyreactivity (PSR sort gate)” value was “low polyreactivity”. Under “QVQLVESGGGLVQAGGSLRLSCAASGRTFGSYAMGWYRQAPGKERELVAAISKGGGSTYYADSVKGRFTISRDNAKNTVYLQMNSLKPEDTAVYYCAKRRFDYYYYGGQGTQVTVSS” stands “high polyreactivity”. With “QVQLVESGGGLVQAGGSLRLSCAASGRTFGSYAMGWYRQAPGKERELVAAITWSGTGTYYADSVKGRFTISRDNAKNTVYLQMNSLKPEDTAVYYCAVYTIGYLAWYQKFDYWGQGTQVTVSS”, the “polyreactivity (PSR sort gate)” value is recorded as “high polyreactivity”. Under “QVQLVESGGGLVQAGGSLRLSCAASGRTFGSYGMGWYRQAPGKERELVAAISRSVGSTYYADSVKGRFTISRDNAKNSVYLQMNSLKPEDTAVYYCAVLNHRSFRYTSYYYWGQGTLVTVSS” stands “high polyreactivity”.

Regarding “QVQLVESGGGLVQAGGSLRLSCAASGRTFGTNAMGWYRHAPGKERELVAANSRRGGSTYYAESVKGRFTISRDNEKNTVYLQMNSLKPEDTAVYYCAKTIGLKHEDEYWGQGTQVTVSS”, the “polyreactivity (PSR sort gate)” value is “low polyreactivity”. Turning to “QVQLVESGGGLVQAGGSLRLSCAASGRTFGTNAMGWYRQAPGKERELVAAINQNGGSTYYADSVKGRFTISRDNAKNTVYLQMNSLKPEDTAVYYCAARSLDRYYHNANYYPYYYWGQGTQVTVSS”, the “polyreactivity (PSR sort gate)” value was “high polyreactivity”. To “QVQLVESGGGLVQAGGSLRLSCAASGRTFGTNTMGWYRQAPGKVRELVATISSSSGSTYYADSVKGRFTISRDNAKNTVYFQMNSLKPEDTAVYYCAALCRWRYKRYDYWGQGTQVTVSS” belongs “high polyreactivity”. As to “QVQLVESGGGLVQAGGSLRLSCAASGRTFGTYALGWYRQAPGKERELVASITSGDSTNYADSVKGRFTISRDNAKNTVYLQMNRLKPEDTAVYYCNARGDVIVTPPKFSFNYEYWGQGTQVTVSS”, the “polyreactivity (PSR sort gate)” value is “low polyreactivity”. For “QVQLVESGGGLVQAGGSLRLSCAASGRTFGTYAMGWSRQAPGKERELVAAITWRTGNTYYADSVKGRFTISRDNAKNTVYLQMNSLKPEDTAVYYCAKTSSGRKFYWGQGTQVTVSS”, the “polyreactivity (PSR sort gate)” value was “high polyreactivity”.

“QVQLVESGGGLVQAGGSLRLSCAASGRTFGTYAMGWYRQAPGKEREFVAAISRNGGSTYYADSVKGRFTISRDNAKNTVYLQMNSLKPEDTAVYYCATGVLWSAYRYRPNLGYDDWGQGTQVTVSS”: the “polyreactivity (PSR sort gate)” value is given as “low polyreactivity”. Under “QVQLVESGGGLVQAGGSLRLSCAASGRTFGVNAMGWYRQAPGKERELVAAITKDSGSTNYADSVKGRFTISRDNAKNTVYLQMNSLKPEDTAVYYCAARVWVRGYYWGQGTQVTVSS” stands “low polyreactivity”; under “QVQLVESGGGLVQAGGSLRLSCAASGRTFGVNAMGWYRQAPGKERELVASISNKGSTYYADSVKGRFTISRDNAKNTVYLQMNSLKPEDTAVYYCAADEYWSWDGTRYGVHYYYWGQGTQVTVSS”, “low polyreactivity”.

On to “QVQLVESGGGLVQAGGSLRLSCAASGRTFGVYAMGCYRQAPGKERELVAGIRWRGGSTYYADSVKGRFTNSRDNAKNTVYLQMNSLKPEDTAVYYCAADVYLVKYDYWGQGTQVTVSS”, for which the “polyreactivity (PSR sort gate)” value was “low polyreactivity”. As for “QVQLVESGGGLVQAGGSLRLSCAASGRTFGVYAMGWYRQAPGKERELVAGIRWRGGSTYYADSVKGRFTISRDNAKNTVYLQMNSLKPEDTAVYYCAADVYLVKYDYWGQCTQVTVSS”, the “polyreactivity (PSR sort gate)” value was “low polyreactivity”. On to “QVQLVESGGGLVQAGGSLRLSCAASGRTFGVYAMGWYRQAPGKERELVAGIRWRGGSTYYADSVKGRFTISRDNAKNTVYLQMNSLKPEDTAVYYCAADVYLVKYDYWGQGTQVTVSS”, for which the “polyreactivity (PSR sort gate)” value was “low polyreactivity”. To “QVQLVESGGGLVQAGGSLRLSCAASGRTFGVYAMGWYRQAPGKERELVASISRSGGSTYYADSVKGRFTISRDNAKNTVYLQMNSLKPEDTAVYYCAAVYKRGMDYWGQGTQVTVSS” belongs “high polyreactivity”; to “QVQLVESGGGLVQAGGSLRLSCAASGRTFGVYAMGWYRQAPGKERELVAVIRVIGGSTNYADSVKGRFTISRDNAKNTVYLQMNSLKPEDTAVYYCAADQYYSSDYDYWGQGTQVTVSS”, “low polyreactivity”; to “QVQLVESGGGLVQAGGSLRLSCAASGRTFGVYVMGWYIQAPGKERELVAVITISGGSTYYADSVKGRFTISRDNAKNTVYLQMNSLKPEDTAVYYCAARTYYGYDYWGQGTQVTVSS”, “high polyreactivity”.

For “QVQLVESGGGLVQAGGSLRLSCAASGRTFGWNAMGWYRQAPGKERELVAAISRTGNTYYADSVKGRFTISRDNAKNTVYLQMNSLKPEDTAVYYCAKGRYYTPTYFRGVDLYDYWGQGTQVTVSS”, the “polyreactivity (PSR sort gate)” value was “low polyreactivity”. Regarding “QVQLVESGGGLVQAGGSLRLSCAASGRTFGWYAMGWYRQAPGKERELVASITQRGGRTYYADSVKGRFTISRDNAKNTVYLQMNSLIPEDTAVYYCAARGATVSSRIYGYWGQGTQVTVSS”, the “polyreactivity (PSR sort gate)” value is recorded as “high polyreactivity”. With “QVQLVESGGGLVQAGGSLRLSCAASGRTFGYNAMGWYREAPGKERELVPAITTSGGSTYYADSVKGRFTISRDNAKNSVYLQMNSRKPEDTAVYYCAADYSFFYRYTWLVYIFDYDYWGQGTQVTVSS”, the “polyreactivity (PSR sort gate)” value is “low polyreactivity”. On to “QVQLVESGGGLVQAGGSLRLSCAASGRTFGYNAMGWYRHAPGKERELVAAISSSGGSTYYADSVKGRFTISRDNAKNTVYLQMNSLKPEDTEVYYCATQGYSWAHGSDYWGQGTQVTVSS”, for which the “polyreactivity (PSR sort gate)” value is listed as “low polyreactivity”. In the case of “QVQLVESGGGLVQAGGSLRLSCAASGRTFGYNAMGWYRQAPGKERELVAAIRTIGDSTYYADSVKGRFTISRDNAKNTVYLQMNSLKPEDTAVYYCAARKLRSRYDYWGQGTQVTVSS”, the “polyreactivity (PSR sort gate)” value is reported as “high polyreactivity”. Under “QVQLVESGGGLVQAGGSLRLSCAASGRTFGYNAMGWYRQAPGKERELVASISYSGGSTYYADSVKGRFTISRDTAKNTVYLQMNSLKPEDTAVYYCSAKYWYWQSPSKYYYWGQGTQVTVSS” stands “high polyreactivity”; under “QVQLVESGGGLVQAGGSLRLSCAASGRTFGYNAMGWYRQAPGKERELVATITSSDSTYYADSVKGRFTISRDNAKNTVYLQMNSLKPEDTAVYYCAADDVGWGYYVYSYPYDYWGQGTQVTVSS”, “low polyreactivity”; under “QVQLVESGGGLVQAGGSLRLSCAASGRTFGYTMGWYRQAPGKERELVAAITRSVTTYYADSVKGRFTISRDNAKNTVYLQMNSLKPEDTAVYYCAAVNTLREMYWGQGTQVTVSS”, “high polyreactivity”. Regarding “QVQLVESGGGLVQAGGSLRLSCAASGRTFGYYAMGWYRQAPGKEREFVAAISWSGGSTYYADSVKGRFTISRDNAKNTVYLQMNSLKPEDTAVYYCATDTTYYAGSWYGYWGQGTQVTVSS”, the “polyreactivity (PSR sort gate)” value is on record as “low polyreactivity”.

“QVQLVESGGGLVQAGGSLRLSCAASGRTFGYYAMGWYRQAPGKERELVAAISSRGGSTSYADSVKGRFTISRDNAKNTVYLQMNSLKPEDTAVYYCAVGRPRPKYEYDYWGQGTQVTVSS”: the “polyreactivity (PSR sort gate)” value is reported as “high polyreactivity”. As to “QVQLVESGGGLVQAGGSLRLSCAASGRTFGYYAMGWYRQAPGKERELVAAISWRTVSTHYADSVKGRFTISRDNAKNTVYLQMNSLKPEDTAVYYCAARWGKIRGFHLDYWGQGTQVTVSS”, the “polyreactivity (PSR sort gate)” value was “high polyreactivity”. Take “QVQLVESGGGLVQAGGSLRLSCAASGRTFGYYAMGWYRQAPGKERELVAAITRTGGSTHYADSVKGRFTISRDNAKNTVYLQMNSLKPEDTAVYYCARDYRYTIPYDYWGQGTQVTVSS”: the “polyreactivity (PSR sort gate)” value is on record as “low polyreactivity”.

For the sequence “QVQLVESGGGLVQAGGSLRLSCAASGRTFGYYAMGWYRQAPGKERELVAAITWIGGSTYADSVKGRFTISRDNAKNTVYLQMNSLKPEDTAVYYCAADPSVWSDYYYWGQGTQVTVSS”, the “polyreactivity (PSR sort gate)” value was “high polyreactivity”. As for “QVQLVESGGGLVQAGGSLRLSCAASGRTFGYYAMGWYRQAPGKVRELVASISSSGGNTYYADSVKGRFTISRDNAKNNVYLQMNSLKPEDTAVYYCAATYGWWPRDYYYWGQGTQVTVSS”, the “polyreactivity (PSR sort gate)” value is given as “high polyreactivity”. As for “QVQLVESGGGLVQAGGSLRLSCAASGRTFGYYDMGWYRPAPGKERELVAAITWIDGRTYYADSVKGRFTISRDNAKNTVYLQMNSLKPEDTAVYYCAKRHKAGFYRTYRYGYWGQGTQVTVSS”, the “polyreactivity (PSR sort gate)” value is “high polyreactivity”. In the case of “QVQLVESGGGLVQAGGSLRLSCAASGRTFGYYGMGWYRQAPGKERELVAAIRRRSGSTYYADSVKGRFTISRDNSKNTFYLQMNSLKPEDTAVYYCNQIRVSNFDYWGQGTQVTVSS”, the “polyreactivity (PSR sort gate)” value is on record as “high polyreactivity”. Under “QVQLVESGGGLVQAGGSLRLSCAASGRTFGYYGMGWYRQAPGKERELVAAITGSGGSTYYADSVKGRFTISRDNAKNTVYLQMNSLKPEDTAVYYCGATDLSRWTLYDYCGQGTQVTVSS” stands “high polyreactivity”; under “QVQLVESGGGLVQAGGSLRLSCAASGRTFGYYGMGWYRQAPGKERELVASINFSSGSTFYADSVKGRFTISRDNAKNTVYLQMNSLKPEDTAVYYCAARAKAVRSYAYNYWGQGTQVTVSS”, “low polyreactivity”; under “QVQLVESGGGLVQAGGSLRLSCAASGRTFGYYTMGWYRQAPGKERELVARINYIGSSTYYADSVKGRFTISRDNAKNTVYLHMNSLKPEDTAVYYSNADNARGRSGVRRYYWGQGTQVTVSS”, “high polyreactivity”.

On to “QVQLVESGGGLVQAGGSLRLSCAASGRTFHAYVMGWYRQAPGKERELVADISSGGDTYADSVKGRFTISRDNAKNTVYLQMNSLKPEDTAVYYCAVDLIQDESGYWGQGTQVTVSS”, for which the “polyreactivity (PSR sort gate)” value is reported as “low polyreactivity”. To “QVQLVESGGGLVQAGGSLRLSCAASGRTFHGNAKGWYRTAPGKERELVAAISYSGGRTYYADSVKARFTISRDNAKNTVYLQMNSLKPEDTAVYYCAAWGSSYSFDYWGQGTQVTVSS” belongs “high polyreactivity”; to “QVQLVESGGGLVQAGGSLRLSCAASGRTFHGYAMGWSRQAPGKERELVARINWSDGRTYYADSVKGRFTISRDNAKNTVYLQMNSLKPADTGVYYCAARLYSSASGVRWIKFDYWGQGTQVTVSS”, “low polyreactivity”.
